Experiments:
DNAJC12-F193G = target: T1, DNAJC12-F193G (human, UniProt Q9UKB3-1 1-198, F193G); assay: BLI; biotinylated TH or TH variant immobilised on streptavidin sensors; DNAJC12 or variant 0.01-4 μM in solution; PBS, 0.02% Tween-20, 0.5 mg/mL BSA, 25 °C; responses fitted to a one-site hyperbola; conditions: both partners purified
T1 construct: source: E. coli BL21-CodonPlus(DE3)-RIL, purified (HisTrap, TEV cleavage, TALON, amylose, SEC); not shown: His6, N-terminal, cleaved; MBP, N-terminal, cleaved

[1] = target: the molecule itself; assay: SEC-MALS; Superdex 200 Increase, 20 mM Na-Hepes pH 7.0, 200 mM NaCl; DNAJC12 3 mg/mL, TH, TH:DNAJC12 complex, TH(1-158) and TH(155-497) 2 mg/mL

T1 sequence (Q9UKB3 whole entry F193G): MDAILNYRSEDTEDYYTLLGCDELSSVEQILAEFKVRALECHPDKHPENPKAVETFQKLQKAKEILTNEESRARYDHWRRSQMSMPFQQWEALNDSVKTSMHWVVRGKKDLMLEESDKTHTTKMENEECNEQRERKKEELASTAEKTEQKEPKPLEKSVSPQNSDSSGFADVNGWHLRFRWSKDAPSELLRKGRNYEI

B1: Tyrosine hydroxylase, wild-type (hTH1) (enzyme)
chain: not shown
modifications: biotinylated with EZ-Link NHS-PEG4-Biotin for BLI only
Kd (DNAJC12-F193G): 1180 nM

B2: TH regulatory domain, TH(1-158) (domain or fragment, human, UniProt P07101-3 1-158, looked up)
chain: MPTPDATTPQAKGFRRAVSELDAKQAEAIMSPRFIGRRQSLIEDARKEREAAVAAAAAAVPSEPGDPLEAVAFEEKEGKAVLNLLFSPRATKPSALSRAVKVFETFEAKIHHLETRPAQRPRAGGPHLEYFVRLEVRRGDLAALLSGVRQVSEDVRSP
modifications: biotinylated with EZ-Link NHS-PEG4-Biotin for BLI only
stoichiometry N [1]: 2

B3: TH catalytic and oligomerization domains, TH(155-497) (domain or fragment)
chain: not shown
modifications: biotinylated with EZ-Link NHS-PEG4-Biotin for BLI only
stoichiometry N [1]: 4

B4: TH-R202H (TH-p.R202H), variant associated with TH deficiency (enzyme)
chain: not shown
modifications: biotinylated with EZ-Link NHS-PEG4-Biotin for BLI only
stoichiometry N [1]: 4

From PMC11926245 (Nature Communications, 2025)
